In the supplement of paper PMC10567573 one finds protein stability index data, which are given here for 72 sequences.

This data set in a line: protein stability index of a GFP-peptide fusion (GPS, HEK-293T) (PSI 1-6); higher = more stable.
The mark [1] stands for this setting: treatment: DMSO, c terminus: a fixed tail appended.
The mark [2] stands for this setting: treatment: MLN4924 1 uM, 8 h, c terminus: a fixed tail appended.

± gives the standard deviation.
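Further: 24-mer peptide tiles fused after GFP, lentivirally expressed, FACS-sorted into six equal bins by GFP/DsRed ratio, decoded by Illumina sequencing, PSI is the read-weighted mean bin number.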

For IRYQSFNNQSDLEKEMQKMNPYKI [PRIM1], the protein stability index under setting [1] was 3.07 ± 0.13 and the protein stability index under setting [2] was determined as 3.26 ± 0.28.
The like results for ITPWTPSPSEKNSSFTWSVPSSGY [SMTNL2] were, in that order, 2.72 ± 0.3 and 2.75 ± 0.34.
For the sequence IVAVLCYINLLNYMDRFTVAGVLP [SPNS1], the protein stability index reads like this: under setting [1], 3.23 ± 0.3; under setting [2], 3.45 ± 0.14.
For IVETVCIVWFSFEFVVRCFACPSQ [KCNA4] the same measures were 3.04 ± 0.21 and 2.66 ± 0.18.
For IVSQKQMSDRRENDMSPSNNVVPI [RAB11A] the same measures were 4.34 ± 0.13 and 4.54 ± 0.14.
For IVWFSFEFVVRCFACPSQALFFKN [KCNA4], the protein stability index amounted to 2.91 ± 0.1 under setting [1] and 2.72 ± 0.81 under setting [2].
IYGPGNLSTNNNTLRDHFKGISSH [SLC2A12]: the protein stability index runs as follows: under setting [1], 2.95 ± 0.26; under setting [2], 3 ± 0.14.
Regarding IYRFLKLHPRGKNNFSPLHLAVDK [FEM1C], the protein stability index under setting [1] was 2.31 ± 0.45 and the protein stability index under setting [2] is 2.25 ± 0.28.
In the case of KAQGHGAKGDNVYEFHLEFLDLVK [HACD3], the protein stability index came out at 2.37 ± 0.2 under setting [1] and 2.46 ± 0.14 under setting [2].
The like results for KDFANTIPGHGGIMDRFDCQYLMA [CDS2] were, in that order, 2.69 ± 0.37 and 2.8 ± 0.26.
For KDRMKSDHKRETERVVREALEKLR [ZMYND11], the protein stability index is, setting by setting: under setting [1], 3.18 ± 0.13; under setting [2], 3.58 ± 0.32.
KEAAEAIEAEGATAPLTELLHSRN [CTNNB1]: the protein stability index came to 5.38 ± 0.28 under setting [1] and 5.28 ± 0.11 under setting [2].
The like results for KELEDMNQKLFDLRGKFKRPPLRR [TNNI2] were, in that order, 3.86 ± 0.19 and 4.1 ± 0.42.
The like results for KFQLNKYTGEIKISENLDYEETGF [PCDHGA10] were, in that order, 2.6 ± 0.099 and 3.63 ± 0.36.
For KGFGFVTMTNYDEAAMAIASLNGY [ELAVL3] the same measures were 2.34 ± 0.13 and 2.37 ± 0.1.
Sequence KGTFSDVTFKLDDGAISAHKPLLI [RHOBTB1] displayed a protein stability index under setting [1] of 2.47 ± 0.32 and a protein stability index under setting [2] of 2.55 ± 0.33.
Regarding KGVNRKLGRTGLYPSYKVREKIET [FUT8], the protein stability index amounted to 3.2 ± 0.31 under setting [1] and 3.4 ± 0.22 under setting [2].
As for KHAVVNLINYQDDAELATRAIPEL [CTNNB1], the protein stability index by setting is: under setting [1], 3.66 ± 0.23; under setting [2], 3.64 ± 0.38.
For the sequence KIDLENTLEQEQEALVNRLWKRMD [CCDC6], the protein stability index by setting is: under setting [1], 3.23 ± 0.41; under setting [2], 3.78 ± 0.39.
In the case of KILPWSPEKIGTRFLLYTNENPNN [PNLIPRP1], the protein stability index under setting [1] is 2.56 ± 0.28 and the protein stability index under setting [2] worked out at 2.89 ± 0.28.
The like results for KKEMNKSDLNTNNLLFKPPVESHI [KMT2E] were, in that order, 3.47 ± 0.39 and 4.12 ± 0.26.
The like results for KKFELVPSPPTSPPWGLGPGAGDP [MYCL] were, in that order, 4.1 ± 0.28 and 4.07 ± 0.21.
The sequence KKIYCRICMAQIAYSGNTSNLSYH [ZBED1] came in with a protein stability index under setting [1] of 2.19 ± 0.28 and a protein stability index under setting [2] of 2.13 ± 0.3.
For KKRRMGTYSLVPKKKTKVLKQRTV [EHMT1], the protein stability index reads like this: under setting [1], 3.27 ± 0.22; under setting [2], 3.82 ± 0.4.
The like results for KLHKSQLSQALNGLSDRAKEAKEF [TRIM9] were, in that order, 4.11 ± 0.15 and 4.17 ± 0.22.
As to KLIKCDEIQVDSEEPVFEAVINWV [KLHL12], the protein stability index amounted to 2.15 ± 0.26 under setting [1] and 2.4 ± 0.36 under setting [2].
Turning to KLLDELPIAKVMKDYLKHKFDDI [ASB7], the protein stability index by setting is: (treatment: DMSO, c terminus: native) 2.37 ± 0.28; (treatment: MLN4924 1 uM, 8 h, c terminus: native) 2.66 ± 0.38.
As to KLLNITADPMDWSPSNVQKWLLWT [SPDEF], the protein stability index runs as follows: under setting [1], 2.34 ± 0.46; under setting [2], 2.22 ± 0.21.
For KLLSVIVWMLMLLLAVPNIILTNQ [P2RY14] the same measures were 2.79 ± 0.47 and 3.21 ± 0.41.
Consider KMNFIKTYPAHQNRVSAIIFSLAT [WDFY1], for which the protein stability index worked out at 2.65 ± 0.51 under setting [1] and 2.5 ± 0.37 under setting [2].
The like results for KMSNSFHGIRPPQLEQPEKMPVLK [RHOBTB3] were, in that order, 4.33 ± 0.16 and 4.34 ± 0.068.
On to KNFSNNSNLIRHQRIHAAERLCMG [ZNF263], for which the protein stability index under setting [1] is 2.86 ± 0.73 and the protein stability index under setting [2] turned out to be 2.73 ± 0.35.
For KNKKKKLKKKQKRQAELLEKRLQE [SRPK2] the same measures were 5.15 ± 0.42 and 5.06 ± 0.48.
For KNWVKELRQHGPPNIVVAIAGNKC [RAB22A], the protein stability index was determined as 2.29 ± 0.23 under setting [1] and 2.47 ± 0.21 under setting [2].
The like results for KPGRKTNQLQYMQNVVVKTLWKHQ [BRD3] were, in that order, 2.25 ± 0.2 and 2.62 ± 0.21.
With KPHFESSTVKTETISFGSVSPGGV [EPB41L3], the protein stability index is, setting by setting: under setting [1], 4.08 ± 0.23; under setting [2], 4.09 ± 0.11.
Take KPLYVAFSFMYILVGLTVIGAFLN [KCNK9]: the protein stability index was determined as 2.79 ± 0.67 under setting [1] and 2.97 ± 0.62 under setting [2].
The like results for KPPMMPQAQPAIPRPNRLFLRQLR [C2CD2L] were, in that order, 3.22 ± 0.17 and 3.43 ± 0.42.
For KPQEIVQVEIFSTNPDLYPVRRID [IQUB], the protein stability index runs as follows: under setting [1], 2.82 ± 0.38; under setting [2], 2.79 ± 0.4.
As to KPYKCTLCGENFSHRSNLIRHQRI [ZNF263], the protein stability index came to 2.74 ± 0.51 under setting [1] and 3.43 ± 0.39 under setting [2].
Regarding KQGQCTKGDKCKFSHDLTLERKCE [ZC3H15], the protein stability index by setting is: under setting [1], 4.75 ± 0.15; under setting [2], 4.6 ± 0.1.
KQGYILNSDQTTCRIQDLCAMEDH [MATN2]: the protein stability index by setting is: under setting [1], 3.35 ± 0.27; under setting [2], 3.17 ± 0.39.
Consider KQPPVTQSKTASDKSPSTVRDQGP [FBF1], for which the protein stability index stood at 5.29 ± 0.17 under setting [1] and 5.27 ± 0.091 under setting [2].
For KQPPWEFLQVLEPGARGLWKPPDI [SPAG8] the same measures were 2.45 ± 0.089 and 2.32 ± 0.23.
As to KQRSVCTWGKNKPGIGAVILKRFC [FAN1], the protein stability index turned out to be 1.99 ± 0.31 under setting [1] and 2.02 ± 0.15 under setting [2].
The like results for KRALAEGAQIWCGEGVDKLSLPAR [ALDH8A1] were, in that order, 3.58 ± 0.3 and 3.71 ± 0.17.
For KRFDESMQVFAKLGTDPTHVMGLY [VPS39] the same measures were 2.38 ± 0.25 and 2.69 ± 0.095.
As to KRNNFYIKIRPGEFEQFESTIGFK [EPB41L3], the protein stability index reads like this: under setting [1], 2.12 ± 0.52; under setting [2], 2.46 ± 0.24.
For KRSSLPRPSSILPPRRGVSGDRDE [MAP2], the protein stability index reads like this: under setting [1], 5.04 ± 0.24; under setting [2], 5.16 ± 0.3.
The like results for KRWQKNNWPKNSNGVTQKASAPTY [NANOGP8] were, in that order, 3.39 ± 0.17 and 3.47 ± 0.21.
For KSAHQTHSSWTPPNAQYWSQFHSV [DNAJC4] the same measures were 2.74 ± 0.28 and 2.67 ± 0.18.
The like results for KSKWDEEWDKNKSAFPFSDKLGEL [CLINT1] were, in that order, 3.82 ± 0.31 and 3.85 ± 0.21.
Turning to KSLDGVTNDRTASQGQWGRAWEVD [DHCR7], the protein stability index under setting [1] worked out at 4.47 ± 0.11 and the protein stability index under setting [2] stood at 4.465 ± 0.035.
Take KSNGFFHGISIPEPEDMETLEEKF [CDKL4]: the protein stability index turned out to be 4.5 ± 0.14 under setting [1] and 4.56 ± 0.27 under setting [2].
For KTKEVQHNCQLHRISFCADDKTDK [GULP1] the same measures were 4.66 ± 0.36 and 4.71 ± 0.21.
For KVEFPEARIYEETLNILLYEAQDG [KCTD10] the same measures were 2.77 ± 0.15 and 2.94 ± 0.35.
The like results for KVEFTEEEIKTWGTVFQELNKLYP [TPH1] were, in that order, 2.77 ± 0.24 and 2.91 ± 0.34.
Turning to KVENLTLKNHFQSVLEQLELQEKQ [TAF7L], the protein stability index is, setting by setting: under setting [1], 3.54 ± 0.13; under setting [2], 3.96 ± 0.094.
For KVLGRLRALSDTTEELTVIKSSLK [SLC2A12] the same measures were 2.58 ± 0.25 and 2.76 ± 0.28.
Consider KVLHEDKQTREQLHSISDSVLFLQ [TRIM29], for which the protein stability index was 3.46 ± 0.16 under setting [1] and 3.58 ± 0.27 under setting [2].
With KVPIAQDELALSLGYAASLEASVQ [C2CD2L], the protein stability index under setting [1] worked out at 3.65 ± 0.33 and the protein stability index under setting [2] is 3.64 ± 0.34.
For KVTDHATTALLHYQLPQMPDVVVR [MED27] the same measures were 3.07 ± 0.19 and 3.28 ± 0.24.
Consider KYWCVTATRVAPERLFGSAANVVS [ZBED1], for which the protein stability index was 2.25 ± 0.34 under setting [1] and 2.38 ± 0.28 under setting [2].
As to LAAAHGHSEVVEELVSADVIDLFD [RIPK4], the protein stability index under setting [1] amounted to 4.08 ± 0.37 and the protein stability index under setting [2] was 4.5 ± 0.46.
Turning to LAEALLHPFFAGLTPEERSFHTSR [CLK3], the protein stability index turned out to be 2.29 ± 0.2 under setting [1] and 2.21 ± 0.23 under setting [2].
In the case of LAQDWERCNTTCGRGVKKRLVLCM [ADAMTSL2], the protein stability index runs as follows: under setting [1], 1.56 ± 0.33; under setting [2], 1.79 ± 0.19.
For LARKNREELDKYWSQQIEESTTVV [KRT18] the same measures were 4.24 ± 0.13 and 4.12 ± 0.23.
For LCATHFGEPLEKVASVGNSRPTGQ [KISS1], the protein stability index by setting is: under setting [1], 3.95 ± 0.4; under setting [2], 4.01 ± 0.23.
The like results for LCEKFDYLYGILEERKNEMTQVIT [TRIM55] were, in that order, 2.7 ± 0.15 and 2.88 ± 0.4.
For the sequence LCNEISLSEIKDAPKVNAVDTLNV [DLC1], the protein stability index runs as follows: under setting [1], 3.77 ± 0.4; under setting [2], 3.81 ± 0.25.
The like results for LDEFARENIDSLYNVNLSKGRAAL [SCNN1D] were, in that order, 3.82 ± 0.17 and 3.85 ± 0.31.
With LDHCANRVLMYGSELDADHPGFKD [TPH1], the protein stability index was determined as 4.62 ± 0.27 under setting [1] and 4.81 ± 0.057 under setting [2].
